Test results published in article PMC5440653, “SorLA in Interleukin-6 Signaling and Turnover” (Molecular and Cellular Biology, 2017).

Assays:
[1] = molecular target: SorLA Vps10p domain (human); assay: SPR; Biacore 3000, CM5 chip; purified soluble receptor immobilized (66 to 86 fmol/mm^2), ligand injected at 5 ul/min, 25°C, 10 mM HEPES, 150 mM NaCl, 1.5 mM CaCl2, 1 mM EGTA, 0.005% Tween 20, pH 7.4; Langmuir 1:1 model, global fitting
[2] = molecular target: T1, soluble SorLA (SorLA ectodomain, luminal part) (human, UniProt Q92673 82-2137); assay: as above; details: both partners purified
T1 construct: SorLA, human, luminal (extracellular) part; The introduction says that the propeptide is cut off in late Golgi compartments; also called sSorLA; the entire extracellular part of SorLA
T1 sequence (Q92673 82-2137): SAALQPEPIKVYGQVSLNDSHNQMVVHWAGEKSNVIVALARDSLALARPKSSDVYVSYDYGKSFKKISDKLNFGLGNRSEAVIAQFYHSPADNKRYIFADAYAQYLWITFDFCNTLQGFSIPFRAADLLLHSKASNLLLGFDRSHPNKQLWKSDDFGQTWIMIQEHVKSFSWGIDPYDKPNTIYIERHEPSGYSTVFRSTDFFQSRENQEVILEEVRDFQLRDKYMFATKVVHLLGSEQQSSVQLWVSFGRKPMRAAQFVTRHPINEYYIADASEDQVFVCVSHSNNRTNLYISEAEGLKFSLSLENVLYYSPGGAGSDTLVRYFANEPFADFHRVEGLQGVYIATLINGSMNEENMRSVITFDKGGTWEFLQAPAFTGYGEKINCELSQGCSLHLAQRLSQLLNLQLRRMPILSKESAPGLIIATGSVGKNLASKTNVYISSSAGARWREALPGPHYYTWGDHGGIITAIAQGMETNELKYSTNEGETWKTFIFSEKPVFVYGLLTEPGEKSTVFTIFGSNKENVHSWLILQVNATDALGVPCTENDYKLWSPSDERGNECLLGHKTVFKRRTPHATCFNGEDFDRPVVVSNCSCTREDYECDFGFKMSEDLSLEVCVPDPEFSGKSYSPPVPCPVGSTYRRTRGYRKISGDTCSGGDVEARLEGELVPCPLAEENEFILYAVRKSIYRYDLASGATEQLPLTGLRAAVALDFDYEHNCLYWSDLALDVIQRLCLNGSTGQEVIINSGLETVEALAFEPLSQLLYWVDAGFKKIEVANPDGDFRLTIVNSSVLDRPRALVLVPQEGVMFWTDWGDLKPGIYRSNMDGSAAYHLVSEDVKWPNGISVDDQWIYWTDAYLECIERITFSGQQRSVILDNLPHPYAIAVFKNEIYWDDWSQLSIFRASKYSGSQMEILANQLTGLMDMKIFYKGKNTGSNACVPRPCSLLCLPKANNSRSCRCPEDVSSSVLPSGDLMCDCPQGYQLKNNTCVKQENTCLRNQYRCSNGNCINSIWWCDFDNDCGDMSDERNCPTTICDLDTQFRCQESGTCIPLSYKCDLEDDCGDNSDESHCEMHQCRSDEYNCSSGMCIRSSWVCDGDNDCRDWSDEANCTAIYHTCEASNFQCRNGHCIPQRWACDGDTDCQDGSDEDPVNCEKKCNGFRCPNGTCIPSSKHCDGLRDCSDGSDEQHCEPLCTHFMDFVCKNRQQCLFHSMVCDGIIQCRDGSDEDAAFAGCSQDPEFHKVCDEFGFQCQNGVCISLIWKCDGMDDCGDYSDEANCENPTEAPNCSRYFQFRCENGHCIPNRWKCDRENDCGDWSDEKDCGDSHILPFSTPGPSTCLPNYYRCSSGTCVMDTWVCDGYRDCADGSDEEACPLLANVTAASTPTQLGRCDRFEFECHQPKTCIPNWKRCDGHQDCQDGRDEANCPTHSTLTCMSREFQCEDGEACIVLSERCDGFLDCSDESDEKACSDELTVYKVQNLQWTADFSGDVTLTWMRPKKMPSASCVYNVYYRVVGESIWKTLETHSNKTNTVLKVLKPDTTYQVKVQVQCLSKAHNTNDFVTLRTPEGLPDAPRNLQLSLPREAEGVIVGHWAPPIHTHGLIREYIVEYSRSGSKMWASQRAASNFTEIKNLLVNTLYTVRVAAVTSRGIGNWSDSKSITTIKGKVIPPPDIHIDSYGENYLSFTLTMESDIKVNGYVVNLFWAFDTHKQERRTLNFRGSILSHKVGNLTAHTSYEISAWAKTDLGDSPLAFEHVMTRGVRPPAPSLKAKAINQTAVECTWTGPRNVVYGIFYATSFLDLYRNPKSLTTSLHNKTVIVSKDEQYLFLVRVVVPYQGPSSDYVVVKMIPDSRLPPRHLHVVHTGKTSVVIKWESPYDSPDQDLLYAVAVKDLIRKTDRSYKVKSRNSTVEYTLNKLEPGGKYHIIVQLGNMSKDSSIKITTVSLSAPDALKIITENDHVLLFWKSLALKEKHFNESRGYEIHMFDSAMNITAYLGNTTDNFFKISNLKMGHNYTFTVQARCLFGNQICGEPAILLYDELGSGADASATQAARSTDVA

[3] = molecular target: T2, preformed sSorLA:IL-6 complex (human, UniProt Q92673 82-2137; P05231 30-212); assay: SPR; immobilized sSorLA first exposed to IL-6 (100 nM), then fresh buffer with 100 nM sIL-6R injected; n = 3; details: both partners purified
T2 construct: SorLA, human, luminal (extracellular) part, as m3; interleukin-6, human, recombinant, as m1; source: formed on the sensor chip: immobilized sSorLA exposed to IL-6 (100 nM)
T2 sequence (Q92673 82-2137, chain 1 of 2): as the sequence (Q92673 82-2137) above
T2 sequence (P05231 30-212, chain 2 of 2): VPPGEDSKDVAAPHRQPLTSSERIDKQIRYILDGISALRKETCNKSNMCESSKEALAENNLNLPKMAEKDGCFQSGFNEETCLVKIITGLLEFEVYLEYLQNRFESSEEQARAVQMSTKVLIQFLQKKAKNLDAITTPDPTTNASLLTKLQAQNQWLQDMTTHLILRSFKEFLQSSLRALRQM

Chain of Interleukin-6 (P05231 30-212): as the sequence (P05231 30-212, chain 2 of 2) above

Row | Kd [1] [nM] | Kd [2] [nM] | Kd [3] [nM] | Molecule
1 | 9 |  |  | soluble IL-6 receptor (IL-6R ectodomain) (from UniProt P08887 20-365)
2 | 12 |  |  | Interleukin-6 (from UniProt P05231 30-212) (ligand)
3 |  | ~34 | 8 | soluble IL-6 receptor (IL-6R ectodomain) (receptor, human, UniProt P08887 20-365, looked up, interleukin-6 receptor (alpha chain), human, soluble form consisting only of the ectodomain; also called sIL-6R; recombinant human sIL-6R; source: bought: R&D Systems) LAPRRCPAQEVARGVLTSLPGDSVTLTCPGVEPEDNATVHWVLRKPAAGSHPSRWAGMGRRLLLRSVQLHDSGNYSCYRAGRPAGTVHLLVDVPPEEPQLSCFRKSPLSNVVCEWGPRSTPSLTTKAVLLVRKFQNSPAEDFQEPCQYSQESQKFSCQLAVPEGDSSFYIVSMCVASSVGSKFSKTQTFQGCGILQPDPPANITVTAVARNPRWLSVTWQDPHSWNSSFYRLRFELRYRAERSKTFTTWMVKDLQHHCVIHDAWSGLRHVVQLRAQEEFGQGEWSEWSPEAMGTPWTESRSPPAENEVSTPMQALTTNKDDDNILFRDSANATSLPVQDSSSVPLP
